Results: publication PMC6503762

Molecular target: MSBI1.176 Rep WH1 domain (residues 1-135) (MSBI1.176 (bovine meat and milk factor DNA isolated from a brain sample of a human patient with multiple sclerosis))
Assay: crystal structure; hanging-drop vapor diffusion at 18°C, 1:1 protein (5 mg/ml in 25 mM Tris-HCl pH 7.6, 300 mM NaCl) and 0.2 M magnesium acetate, 20% PEG 3350; S-SAD phasing; 1.53 Å; one dimer in the asymmetric unit

Substance: MSBI1.176 Rep WH1 domain (residues 1-135) (domain or fragment)
- stoichiometry N: 2
